Target: T1, recombinant human TLR4 (Toll-like receptor 4) (human, UniProt O00206 24-631)
T1 construct: Toll-like receptor 4, human, recombinant; No catalogue number is printed; also called rTLR4; source: bought: R&D Systems
Assay: SPR; Bio-Rad ProteOn XPR36, GLC chip; Bethyl PBEF antibody covalently immobilised (5000 RU); rPBEF only (100 nM), rTLR4 only (1 uM) and pre-mixed rPBEF-rTLR4 injected over the antibody surface; PBST (10 mM phosphate, 150 mM NaCl, 0.05% Tween20, pH 7.4)
Conditions: both partners purified

T1 sequence (O00206 24-631): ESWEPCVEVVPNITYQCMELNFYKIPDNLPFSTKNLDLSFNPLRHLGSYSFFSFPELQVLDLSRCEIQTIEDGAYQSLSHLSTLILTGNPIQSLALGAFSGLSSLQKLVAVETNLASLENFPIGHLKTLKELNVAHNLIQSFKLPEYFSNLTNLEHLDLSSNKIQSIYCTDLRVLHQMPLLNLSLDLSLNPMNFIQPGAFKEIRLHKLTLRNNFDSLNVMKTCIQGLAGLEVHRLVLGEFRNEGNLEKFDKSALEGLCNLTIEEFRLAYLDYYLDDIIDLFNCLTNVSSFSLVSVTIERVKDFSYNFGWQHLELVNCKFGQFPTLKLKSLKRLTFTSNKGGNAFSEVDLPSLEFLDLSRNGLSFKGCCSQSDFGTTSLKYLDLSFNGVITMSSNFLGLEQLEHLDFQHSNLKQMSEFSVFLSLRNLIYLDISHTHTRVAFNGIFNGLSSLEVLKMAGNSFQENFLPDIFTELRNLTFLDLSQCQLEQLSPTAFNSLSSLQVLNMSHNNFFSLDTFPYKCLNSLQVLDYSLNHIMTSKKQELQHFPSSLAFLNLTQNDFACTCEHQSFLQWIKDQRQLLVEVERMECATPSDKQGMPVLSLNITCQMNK

B1: recombinant human NAMPT/PBEF (nicotinamide phosphoribosyl-transferase / pre-B cell colony-enhancing factor) (natural protein, UniProt P43490 1-491, looked up)
chain: MNPAAEAEFNILLATDSYKVTHYKQYPPNTSKVYSYFECREKKTENSKLRKVKYEETVFYGLQYILNKYLKGKVVTKEKIQEAKDVYKEHFQDDVFNEKGWNYILEKYDGHLPIEIKAVPEGFVIPRGNVLFTVENTDPECYWLTNWIETILVQSWYPITVATNSREQKKILAKYLLETSGNLDGLEYKLHDFGYRGVSSQETAGIGASAHLVNFKGTDTVAGLALIKKYYGTKDPVPGYSVPAAEHSTITAWGKDHEKDAFEHIVTQFSSVPVSVVSDSYDIYNACEKIWGEDLRHLIVSRSTQAPLIIRPDSGNPLDTVLKVLEILGKKFPVTENSKGYKLLPPYLRVIQGDGVDINTLQEIVEGMKQKMWSIENIAFGSGGGLLQKLTRDLLNCSFKCSYVVTNGLGINVFKDPVADPNKRSKKGRLSLHRTPAGNFVTLEEGKGDLEEYGQDLLHTVFKNGKVTKSYSFDEIRKNAQLNIELEAAHH
notes: nicotinamide phosphoribosyl-transferase (NAMPT/PBEF/visfatin), human, bioactive non-denatured recombinant protein; also called rPBEF; visfatin; source: bought: MBL International
binding result: binds
